From US10876098B2, “Polynucleotide, host cell and a method to recombinantly produce the protein encoded by said polynucleotide having peroxygenative activity” (CONSEJO SUPERIOR DE INVESTIGACIONES CIENTIFICAS (CSIC), priority 2015, dated 2020)

Key:
[1] = Propranolol transformation reaction analysed by HPLC-PDA; assay type: biochemical; settings: absence of ascorbic acid
Description: FIG. 13 Chromatogram showing the enzyme reactions.
The reactions were analysed by means of chromatography in reverse phase (HPLC). The equipment was composed of a tertiary pump (Varian-Agilent Technologies, USA) coupled to an autosampler (Merck Millipore, MA, USA); for the separation, a Zorbax Eclipse plus C18 column (15 cm×4.6 cm) at 40° C. was used and the detection was performed using a photodiode detector (PDA) (Varian, Agilent Technologies, USA). The mobile phase selected was a gradient from 10% methanol and 90% ddH2O (in both cases with 0.1% of acetic acid) up to 90% methanol and 10% ddH2O at a flow rate of 0.8 mL/min. The reaction was quantified at 280 nm (based on HPLC standards). […] The standard deviations were less than 5% in all cases.

[2] = Optimum pH for naphthalene; assay type: biochemical
[3] = Thermostability assay (T50), culture supernatants, residual activity with ABTS; assay type: physicochemical
Description: An individual S. cerevisiae colony was selected with the corresponding clone (grown in a SC drop-out minimal medium plate: 100 mL of 6.7% yeast nitrogen base, 100 mL of 19.2 g/L uracil-free amino acid supplement, 100 mL of 20% glucose, 1 mL of 25 g/L chloramphenicol and ddH2O up to 1,000 mL) was inoculated in 2 mL of selective minimal medium (as in the SC plate medium, but with 20 g of bacto agar and rafinose instead of galactose) and was incubated for 48 hour at 30° C. and 220 RPM. An aliquot of this culture was taken such that, upon inoculating it in 5 mL of new minimal medium, optical density at 600 nm would have a value of 0.25 (optical density, OD600=0.25). This starter was incubated until completing two full growth cycles (between 6 and 8 hours), at which time 1 mL of cells were taken to inoculate 9 mL of expression medium in a 100 mL flask (OD600=0.1). This culture of each clone was incubated for 72 hours at 25° C. and 220 RPM (at peak UPO activity; OD600=25-30), the cells were separated by centrifugation (10 minutes at 4,500 RPM and 4° C.) and supernatant was filtered (using a glass and nitrocellulose filter with a pore size of 0.45 μm). Appropriate dilutions of the supernatants were prepared so that aliquots of 20 μL would give rise to a linear response in kinetic mode. 50 μL of supernatant were used for each point in a temperature gradient created by means of thermocyclator, from 30 to 80° C. After incubating for 10 minutes, the aliquots were cooled in ice for 10 minute and tempered at room temperature for 5 minutes. […] The thermostability values were calculated in accordance with the ratio between the residual activities incubated at different temperatures and the value of initial activity at room temperature. The value of T50 was determined as the value of the temperature at which the protein loses 50% of it initial activity after incubating for 10 minutes.
An individual S. cerevisiae colony was selected with the corresponding clone (grown on a SC drop-out minimal medium plate: 100 mL of 6.7% yeast nitrogen base, 100 mL of 19.2 g/L uracil-free amino acid supplement, 100 mL of 20% glucose, 1 mL of 25 g/L chloramphenicol and ddH2O up to 1,000 mL), was inoculated in 3 mL of selective minimal medium (like the SC plate medium, but with 20 g of bacto agar and rafinose instead of galactose) and incubated for 48 hours at 30° C. and 220 RPM. […] The thermostability values were calculated in accordance with the ratio between the residual activities incubated at different temperatures and the value of initial activity at room temperature. The value of T50 was determined as as the temperature value at which the protein loses 50% of its initial activity after incubating for […].

[4] = Stability at high acetonitrile concentrations; assay type: physicochemical; settings: 5 hours of incubation, 50% to 100% co-solvent, 20° C.; versus PaDa-I
Description: FIG. 2 Biochemical characteristics of the variants of the invention. A) Spectroscopic characteristics of the PaDa-I (thin line) and JaWa (thick line) mutants at rest. AU, arbitrary units. B) Thermostability analysis (T50) of the PaDa-I (black circles) and JaWa (white circles) mutants. The experiments were carried out using culture supernatants and each point represents the average value and standard deviation of three individual experiments. C) Stability of the PaDa-I (black bars) and JaWa (grey bars) mutants at high acetonitrile concentrations. The stabilities were determined after 5 hours of incubation of the enzyme in increasing concentrations of the co-solvent (from 50% to 100%) at 20° C. in 10 mM pH 7.0 potassium phosphate buffer. […] The error bars indicate standard deviations.

[5] = 4-AAP assay with propranolol in the presence of ascorbic acid (peroxygenase activity); assay type: biochemical; settings: 0.2 μM pure variant, 5 mM propranolol, 2 mM H2O2, with and without 4 mM ascorbic acid
Description: FIG. 9 Assay of 4-AAP (4-aminoantipyrine) with different pure UPO variants (AaeUPO1, PaDa-1 and JaWa). […] Each reaction was performed in triplicate.
The mother plates were centrifuged (Eppendorf 5810R centrifuge, Germany) for 10 minutes at 3,500 RPM and 4° C. 20 μL of supernatant of these mother plates were transferred to two replica daughter plates with the help of a Freedom EVO liquid-handling robot (Tecan, Switzerland).
Without ascorbic, the plates were incubated for 30 minutes and with ascorbic for 60 minutes. […] The plates were briefly agitated and absorbance measured at 530 nm, using a plate reader for such purpose ([…]ax Plus 384, Molecular Devices, USA). The values were normalised against the parental of each plate. To rule out false positives, re-screenings were carried out, in addition to a third re-screening wherein kinetic stability was determined (T50) (P. Molina-Espeja, et al. Appl. Environ. Microbiol. 2014. 80, 3496-3507).

B1: JaWa: PaDa-I variant with added mutations G241D and R257K, SEQ ID NO: 24 (protein)
chain: MKYFPLFPTLVYAVGVVAFPDYASLAGLSQQELDAIIPTLEAREPGLPPGPLENSSAKLVNDEAHPWKPLRPGDIRGPCPGLNTLASHGYLPRNGVATPAQIINAVQEGFNFDNQAAIFATYAAHLVDGNLITDLLSIGRKTRLTGPDPPPPASVGGLNEHGTFEGDASMTRGDAFFGNNHDFNETLFEQLVDYSNRFGGGKYNLTVAGELRFKRIQDSIATNPNFSFVDFRFFTAYGETTFPANLFVDGRRDDGQLDMDAARSFFQFSRMPDDFFRAPSPRSDTGVEVVVQAHPMQPGKNVGKINSYTVDPTSSDFSTPCLMYEKFVNITVKSLYPNPTVQLRKALNTNLDFLFQGVAAGCTQVFPYGRD
[1]; 0.03 μM enzyme, 4 mM propranolol, 2 mM H2O2
  regioselectivity against 5′-hydroxypropranolol: 99%
[1]; compared among AaeUPO, PaDa-I, JaWa, SoLo
  amount of 5′-hydroxypropranolol produced: produce the largest amount of 5′-hydroxypropranolol
[2]
  Optimum pH for naphthalene: 6.0
[3]; culture supernatants, temperature at which the enzyme retains 50% of its activity after 10 minutes of incubation
  Thermal stability, T50: 59.7 °C
[3]; versus PaDa-I variant
  increase in thermostability (T50) with respect to PaDa-I: 2 °C
[4]
  stability in the presence of acetonitrile: higher stability in the presence of acetonitrile
[5]
  activity against propranolol in 4-AAP assay among pure UPO variants: greatest activity against propranolol
